Reference: the DeepSol protein solubility set

Assay: soluble on expression in E. coli; label from the status in PepcDB or PDB records

| Sequence | soluble on expression in E. coli |
| --- | --- |
| MAHHHHHHMARHSSTPLSSSVCVRRKTMSSCRTSSFTHTSSRTLARVQRRFSRETTAPRAVLVTLQDARTNPRNAVRRLDDIHIPSLNQRLSSRLQNSSSQSNRDAIRSPSDANCTAQPNSDNANLATAVLSTKTSATQDAKFLLMPSISVSARAPDTAMADASCNTAPSASS | not soluble |
| MGSDKIHHHHHHMLRDLVYPPGCATCGLPVAKAGSLCSDCWCSVRFIERPYCEILGLPFGFDPGQGMVCAEAIANPPVFDRLRAAVVHDGAARDLVHRLKYGDRTDLAPMMAHWMIRAGGQELLRADAILPVPLHRWRLFSRQYNQSAELGRALAGLSDKPFLPGVLTRVKRTQKQVGLTEKARADNVRGAFKVAENRRDQVFGRHLVLVDDVYTTGATVSAATRALKRAGAVEVTVLTFAMALVTPI | not soluble |
| SLGQRPPIRRIVIDAAIPTKGITIVDVAKELYKVEGVKAVRITVDDVDVDVLGLAIVVEGVDIDYNELEDVLEKVGGVVHSVDEVVVGEYIPEAGRTA | soluble |
| MSLIYCETERLILRDWHEDDLLPFQKMNANYDVRKYFPSLLSYRRSELDMRTMDAVIKDYGIGLFAVEDKESHQWIGFIGLNYIPETSDYPFKELPLYEIGWRLLPEFWGKGLATEGAKATLKLAEEHQIYDVYSFTAEANKASQRVMEKIGMTVYDHFELPNLSKYHLLKRQVRYYINLRKEGHHHHHH | soluble |
| MTAKKEHLFIVFENLIKIKSECSCEIFSECGISDITVKQIGYLKAIDEHGEVTFSRLAKITKNSKPTITEMVNKFVRMECVYREKCPEDGRIFYIRLTEKGQRIARAEESSLLRVIEKMAESLNEKEIETLIRILGKVR | not soluble |
| AQRDVLAVLPQLNAVQNLAGDAPSWAEGYGLYQGDMLGEESASVYRKLLIAVFAPRLVTRIEEQLRSGGSSDFLYEGLKAYLMLGSPDHYDADFIKAWISLDWERNLPRDLSPEQRQALHAHLDALLERRPPSARLDQDLVEDLRRQLQQLPVAQRVYDRVKRQRLPKDVPDFRISDAAGRDAPLVFARKSGKPLTDPLSGFFTYRGYREVFLTASLSQAGTIAEEQWVLGRDLNDAGDAANLALDVRRLYFQDYLRQWDDLLADLTVVPITNVTQAADVLRILSGPTSPFRKLLEAVARETDLQKGDRLVAAQVKKAADGTVDKLKQRLGSLVGQEEEG | not soluble |
| NVVETKALFVSTNDLARRLQKLNNEQKIQSNRLKTTIENIPSAILMIDRNGKIVVANKAYYEQFNISHNIEQVGYHGYVNTEIEQLILESFKVEKPIYEQLEVAINQVHAKYFDISCVPILTRSQKSLQGILVVMHD | not soluble |
| MFLQSNEHVGTYYAAVNPELIQPRQALEGDLDCEVLVVGAGFSGLHTALRLVEGGRQVCVIEASRIAWAASGRNGGQALPGWSSDLPPLEADLGYEGARRLWDGMLWAAGEMRELPQRHGFDCDYRVGHLWTAILPRRVGLLYDWQAEANRRWGYEGLRFVAKDELPEWIASERYLAGLYDPHAAHLNPLKLAFGLAAAIERAGGRIHERTRALNYREEGDGYRVRTEHGEIRCAALVLACNAYIDGLDSELSQRMLPVGTYQVATEPLGEERAKSLLPRNCCVTDNQFVLDYFRLTPDHRLLFGGGCTYLGGMPSDIRAATRPYLERVFPQLRGVALEYAWGGHIDCSMRRTPDIGRQGNRYWLQGYSGHGVLPSLAAARAVSDALLGDDETLALYQRLRNPKFPGGQRFAAPLEALGKAYYRLRDLFLEHHHHHH | not soluble |
| MDREVEAQIGLNNVKILKSNILDSDEGKLFLKFGDEDLVIGELESLKAIQSTETILCPKPFGIIRRNGSYSLITSYIDFQLRKDWALAGSQLAKMHAKNGEQLAQNARRTRFVSVNSGMSDISKSEEGEQIGTENFGFHVTTCCGRLGQENDWTETWEEFFIRHRLKPQIDRLIETHNDRQLFELSEILYTKTAKLLKCRENVLPSLVHGDLWGGNWSMTTADGAPEPIIFDPSSSYSDPEFEFGIMKMFGGWTQDFENKYEKIIKTADGKNQRVLLYELYHNLNHWNHFGNSYRKKEKKLDKIYNNVYNNCYNNVRKNYCTKRITPKSGKLRNKAVRHPDFLANGIRRSPNLNFRSAIVICRSPFAAQPWYVAQLSKLEVMITDLIQM | not soluble |
| MSLKHHHNHHGEAGFKRKVDYLDRPERSEVLSPEDFLQAMPIGKTASILDLGAGTGFLTIPAAKLVDNTVFALDLDAKMLELIESKAKEAGLANVETLEASMDDIPLEANSVDVVLASLVLHEADSLADVLREVSRVVKTGGYFASLEFDTKGTDLKGPPMEIQISAEKLKEELAGFGFEVVKNWQLDEGMYVSIAVKKEGHHHHHH | soluble |
| MSDIKHEKKLANMDTPGETTKSFENKLDEEIPDIEESDFINSPPFSDEIFSPEDSKQVEISELSKQAYSLLKGNSITEAINVFKKILELDPTNNYALVGLGDAERKNNKFNEAIKFYKQCLEHHPSNNYALFGLADCYKSMNQFPRAIAIWEEYLKFDDKNITVLTRVADAYRKTKEFEKAEKLYQKVLEKSPKNAYALIGLGHLNYDFKKYREALVYWEKVMESSGELVDIRILTSIGNCYRKMKLFDRGVYYFERALERSPDNFYGLFGLADCYRGLNQQYNSIVYWKKILELDPNNKVILTRIGDAYRSMNDFEKAKESYQKALDIDFDSYAMLGLAILCKLQQKYDQAITTLTHLKDTGDTNYNYRVYLELAQCYIEKKEKQKAIETLIDFQKLGIKNQTVSDLLFELTKNDH | not soluble |
| MSLRTTESEKGLRMPGLPPMVAPPAEQVDDPVTATDAANAVDAVLRGVLDERLRHCRAVDPLFARELADRLAALTARGGKRLRTAFAHCGWRAAGGSGDATAVLRTGAALELLQACALVHDDVMDGSVQRRGAPALHVDLARGHWAAGMHGSSESFGTSAAVLTGDLALAWADDLLTETALGTPHGPRLHGEWRAMRTEMVAGQYRDLHAQAARSSGVDEALAIATLKSALYTVARPLALGAVLAGAADGDALEALRAAGRCAGLAFQLRDDLLGAFGDPALTGKPADDDLRSRKLTYLLAVAVRLADAADDHLAAAALAPDADPKSEKAVRQVRSALVRTGARDLVETKIGELTDMSLAHFDRCGARPAVRHEFAALIGRATGAVPRGTGEVVEGHHHHHH | soluble |
| MNNQYLQFVREQLIIATADLSGATKGQLEAWQENAMFDTGRYRRKKIRYRDEVTGKMITRDNPPIPGKQSLAKGTSIPLVSPVEFSTSSWRRAVLSLEEHYKAWLLWCYSGSICWEYQIAITQWAWNEFNAQSGTRKIAGKTQERLKKLIWLAAQAVKAELFGGEGYEYQELALLAGVTTKNWSKTFTRHWVAMKHIFHRLDSEALLFVMRTRSKKRRHFQSKVLQK | not soluble |
| MKITVFGATGNVGNRVITEALLRGHEITAVLRNNARANEFDSSVKVVIGHADNVDDVVKWSDGQDLIISATRPPQGLESQLVDTAKALLSGLAQTKVRLLLVGGAASLTVPNSNGMLVVDDTDLVPTAWRDIALACLAQHKLCQENESVDWSYISPPAVIVPGERTGIFRTGSDELLVDEQGQSTISLEDFAIALLDEAEVVKHKRKRFTVAYLEHHHHHH | not soluble |
| MENCPLVSVIVCAYNAEQYIDESISSIINQTYENLEIIVINDGSTDLTLSHLEEISKLDKRIKIISNKYNLGFINSLNIGLGCFSGKYFARMDADDIAKPSWIEKIVTYLEKNDHITAMGSYLEIIVEKECGIIGSQYKTGDIWKNPLLHNDICEAMLFYNPIHNNTMIMRANVYREHKLIFNKDYPYAEDYKFWSEVSRLGCLANYPEALVKYRLHGNQTSSVYNHEQNETAKKIKRENITYYLNKIGIDIKVINSVSLLEIYHVDKSNKVLKSILYEMYMSLDKYTITSLLHFIKYHLELFDLKQNLKIIKKFIRKINVIF | not soluble |
| MEITPKRYWRRWRGYEKLDGSSETTSGRRKGKRVKMDPTRKKRFWRIKIVPKLRILKTASPKKFLVWLRDSYVKMMMRLANSRVVGSSGYGGSGFGSGQMKEYDEKMLVEIYKSILMVQAQGNLVHRDTPNNNLKLPSEPAVVSVVSSVVTC | not soluble |
